Results from paper PMC10872772.

What was measured:
Assay in all cases: FRET or BRET
Set-up in all cases: unit not given beside the values
[1] = target: T1, GST-LXRα LBD (human)
T1 sequence (Q13133 whole entry, looked up): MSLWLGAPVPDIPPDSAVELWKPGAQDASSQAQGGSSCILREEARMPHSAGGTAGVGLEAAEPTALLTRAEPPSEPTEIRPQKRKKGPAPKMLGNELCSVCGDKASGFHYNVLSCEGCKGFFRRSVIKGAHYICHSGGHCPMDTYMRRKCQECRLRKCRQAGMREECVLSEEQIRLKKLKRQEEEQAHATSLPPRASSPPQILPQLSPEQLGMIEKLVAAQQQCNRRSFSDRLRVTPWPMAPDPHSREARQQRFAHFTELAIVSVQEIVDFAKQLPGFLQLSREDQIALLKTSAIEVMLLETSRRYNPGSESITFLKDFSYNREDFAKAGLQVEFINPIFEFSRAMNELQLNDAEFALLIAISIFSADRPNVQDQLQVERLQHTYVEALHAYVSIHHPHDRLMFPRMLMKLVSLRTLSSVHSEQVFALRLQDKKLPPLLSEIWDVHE

[2] = target: T2, GST-LXRβ LBD (human)
T2 sequence (P55055 whole entry, looked up): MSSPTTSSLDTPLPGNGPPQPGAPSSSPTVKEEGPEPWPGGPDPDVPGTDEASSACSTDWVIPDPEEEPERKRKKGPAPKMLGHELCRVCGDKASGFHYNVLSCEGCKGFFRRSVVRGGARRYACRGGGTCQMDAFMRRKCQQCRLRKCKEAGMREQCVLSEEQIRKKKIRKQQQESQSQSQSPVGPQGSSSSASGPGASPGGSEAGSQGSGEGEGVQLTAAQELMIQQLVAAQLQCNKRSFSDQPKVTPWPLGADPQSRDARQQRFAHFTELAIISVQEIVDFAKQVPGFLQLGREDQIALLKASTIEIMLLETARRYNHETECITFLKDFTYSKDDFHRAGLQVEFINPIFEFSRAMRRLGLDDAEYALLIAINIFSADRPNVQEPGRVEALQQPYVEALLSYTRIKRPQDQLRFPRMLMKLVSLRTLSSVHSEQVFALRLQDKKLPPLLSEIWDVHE

[3] = target: T3, GST-PXR LBD protein (human)
T3 sequence (O75469 whole entry, species assumed, looked up): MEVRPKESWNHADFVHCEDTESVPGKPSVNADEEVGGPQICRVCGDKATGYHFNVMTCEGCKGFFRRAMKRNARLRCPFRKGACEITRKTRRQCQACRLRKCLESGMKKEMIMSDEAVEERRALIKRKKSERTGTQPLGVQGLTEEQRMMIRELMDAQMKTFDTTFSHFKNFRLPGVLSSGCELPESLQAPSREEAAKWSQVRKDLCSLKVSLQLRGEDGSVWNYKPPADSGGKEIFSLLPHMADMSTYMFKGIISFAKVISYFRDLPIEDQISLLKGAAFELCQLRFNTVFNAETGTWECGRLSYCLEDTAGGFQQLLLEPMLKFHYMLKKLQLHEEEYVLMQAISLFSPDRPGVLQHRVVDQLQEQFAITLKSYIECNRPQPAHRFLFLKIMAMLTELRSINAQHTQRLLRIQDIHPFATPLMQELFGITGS

{FAM-(PEG)5}-CPSSHSSLTERHKILHRLLQEGSPS-NH2 [FAM-SRC1-B peptide]
AUC of SRC-1 recruitment (TR-FRET) with SJPYT-299 [1]: 67.1 | AUC of SRC-1 recruitment (TR-FRET) with SJPYT-300 [1]: 80.2 | AUC of SRC-1 recruitment (TR-FRET) with SJPYT-301 [1]: 95.1 | AUC of SRC-1 recruitment (TR-FRET) with SJPYT-302 [1]: 108 | AUC of SRC-1 recruitment (TR-FRET) with SJPYT-303 [1]: 63.6 | AUC of SRC-1 recruitment (TR-FRET) with SJPYT-304 [1]: 59.5 | AUC of SRC-1 recruitment (TR-FRET) with SJPYT-305 [1]: 33.4 | AUC of SRC-1 recruitment (TR-FRET) with SJPYT-315 [1]: 62.3 | AUC of SRC-1 recruitment (TR-FRET) with SJPYT-316 [1]: 60.8 | AUC of SRC-1 recruitment (TR-FRET) with SJPYT-317 [1]: 27.2 | AUC of SRC-1 recruitment (TR-FRET) with T0901317 [1]: 122 | AUC of SRC-1 recruitment (TR-FRET) with SJPYT-299 [2]: 133 | AUC of SRC-1 recruitment (TR-FRET) with SJPYT-300 [2]: 136 | AUC of SRC-1 recruitment (TR-FRET) with SJPYT-301 [2]: 154 | AUC of SRC-1 recruitment (TR-FRET) with SJPYT-302 [2]: 149 | AUC of SRC-1 recruitment (TR-FRET) with SJPYT-303 [2]: 120 | AUC of SRC-1 recruitment (TR-FRET) with SJPYT-304 [2]: 125 | AUC of SRC-1 recruitment (TR-FRET) with SJPYT-305 [2]: 76.1 | AUC of SRC-1 recruitment (TR-FRET) with SJPYT-315 [2]: 117 | AUC of SRC-1 recruitment (TR-FRET) with SJPYT-316 [2]: 144 | AUC of SRC-1 recruitment (TR-FRET) with SJPYT-317 [2]: 71.3 | AUC of SRC-1 recruitment (TR-FRET) with SJPYT-318 [2]: 21.8 | AUC of SRC-1 recruitment (TR-FRET) with SJPYT-319 [2]: 21.5 | AUC of SRC-1 recruitment (TR-FRET) with T0901317 [2]: 202 | AUC of SRC-1 recruitment (TR-FRET) with SJPYT-299 [3]: 102 | AUC of SRC-1 recruitment (TR-FRET) with SJPYT-300 [3]: 102 | AUC of SRC-1 recruitment (TR-FRET) with SJPYT-301 [3]: 129 | AUC of SRC-1 recruitment (TR-FRET) with SJPYT-302 [3]: 102 | AUC of SRC-1 recruitment (TR-FRET) with SJPYT-303 [3]: 134 | AUC of SRC-1 recruitment (TR-FRET) with SJPYT-304 [3]: 113 | AUC of SRC-1 recruitment (TR-FRET) with SJPYT-305 [3]: 161 | AUC of SRC-1 recruitment (TR-FRET) with SJPYT-315 [3]: 57.4 | AUC of SRC-1 recruitment (TR-FRET) with SJPYT-316 [3]: 38.7 | AUC of SRC-1 recruitment (TR-FRET) with SJPYT-317 [3]: 39.5 | AUC of SRC-1 recruitment (TR-FRET) with SJPYT-318 [3]: 47.1 | AUC of SRC-1 recruitment (TR-FRET) with SJPYT-319 [3]: 23.6 | AUC of SRC-1 recruitment (TR-FRET) with T0901317 [3]: 124
